Assay [1] addresses HIV-1 envelope (Env) of strain BG505 (subtype A) (HIV-1 subtype A) (UniProt Q2N0S6).
Assay [2] has as its target HIV-1 envelope (Env) of strain DH123 (subtype B) (HIV-1 subtype B).
The target of assay [3] is HIV-1 envelope (Env) of strain JR-CSF (subtype B) (HIV-1 subtype B) (UniProt P20871).
For assay [4], the target named is HIV-1 envelope (Env) of strain JR-FL (subtype B) (HIV-1 subtype B) (UniProt Q75760).
Assay [5] deals with HIV-1 envelope (Env) of strain PVO.4 (subtype B) (HIV-1 subtype B).
The target in assay [6] is HIV-1 envelope (Env) of strain REJO (subtype B) (HIV-1 subtype B).
Assay [7] deals with HIV-1 envelope (Env) of strain SF162 (subtype B) (HIV-1 subtype B) (UniProt P19550).
For assay [8], the target named is HIV-1 envelope (Env) of strain THRO (subtype B) (HIV-1 subtype B).
The target in assay [9] is HIV-1 envelope (Env) of strain ZM109 (subtype C) (HIV-1 subtype C).
Assay [10] concerns the target HIV-1 envelope (Env) of strain ZM214 (subtype C) (HIV-1 subtype C).
Assay [11] concerns the target HIV-1 envelope (Env) of strain ZM53 (subtype C) (HIV-1 subtype C).

With fusion inhibitor T-20 (peptide), the reduction in inhibitory activity during cell-cell transmission (293-T donor to A3.01-CCR5) against free virus infection of A3.01-CCR5 (fold change IC50) in [1], in assay [2], in [3], in assay [4], in assay [5] and in assay [6] was under 10 fold in each case. Also, the reduction in inhibitory activity during cell-cell transmission (293-T donor to A3.01-CCR5) against free virus infection of A3.01-CCR5 (fold change IC50) in assay [7], in assay [9] and in [11] was under 10 fold each time. For the same substance, the median fold reduction for T-20 in cell-cell transmission (293-T donor to A3.01-CCR5) against free virus infection in [8] was found to be 1.6 fold; in [10], 5.3 fold.

The values above are taken from PMC4497647.
